In assay [1] the target is Fcγ receptor IIIa (V176 or F176, not told which) (UniProt P08637). Description: ELISA. For orientation: In an ELISA, binding on a coated surface is turned into a signal by an enzyme label.
Assay [2] shares this target.
Assay [3] deals with motavizumab IgG1 with Fc variant DF213 (human). Put plainly: SPR. In general terms: SPR reads the build-up and loss of mass on a sensor chip optically.
Assay [4] concerns the target motavizumab IgG1 with Fc variant DF215 (human). Put plainly: SPR.
Assay [5] concerns the target motavizumab IgG1 with wild type Fc (human). Description: SPR.
For assay [6], the target named is motavizumab IgG1 with Fc variant DF183 (human). Description: SPR.
For assay [7], the target named is motavizumab IgG1 with Fc variant DF197 (human). Put plainly: SPR.
Assay [8] addresses soluble human neonatal Fc receptor (FcRn alpha chain extracellular domain + beta2-microglobulin) (UniProt P55899+P61769). Put plainly: SPR. The note with it: pH 6.0, PBS (concentration not stated), adjusted to pH 6.0 or pH 7.4.
Assay [9] concerns the target recombinant cynomolgus monkey FcRn (cynomolgus monkey) (UniProt Q8SPV9). Put plainly: BLI. A general note: Biolayer interferometry detects binding as a change in optical thickness at a sensor tip.
UniProt Q8SPV9, sequence (Q8SPV9 24-297, chain 1 of 2): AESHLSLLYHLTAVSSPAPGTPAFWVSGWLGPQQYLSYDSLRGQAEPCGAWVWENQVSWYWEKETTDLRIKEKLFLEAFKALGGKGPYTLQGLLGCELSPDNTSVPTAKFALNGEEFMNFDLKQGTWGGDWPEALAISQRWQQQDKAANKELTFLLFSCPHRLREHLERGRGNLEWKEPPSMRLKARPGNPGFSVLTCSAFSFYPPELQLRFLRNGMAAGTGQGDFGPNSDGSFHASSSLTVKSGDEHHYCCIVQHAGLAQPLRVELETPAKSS
UniProt Q8SPV9, sequence (Q8SPW0 21-119, chain 2 of 2, further chain): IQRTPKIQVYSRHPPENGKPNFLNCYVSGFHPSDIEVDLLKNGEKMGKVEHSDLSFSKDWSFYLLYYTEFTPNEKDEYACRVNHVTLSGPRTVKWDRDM

UniProt P08637, sequence (P08637 17-208): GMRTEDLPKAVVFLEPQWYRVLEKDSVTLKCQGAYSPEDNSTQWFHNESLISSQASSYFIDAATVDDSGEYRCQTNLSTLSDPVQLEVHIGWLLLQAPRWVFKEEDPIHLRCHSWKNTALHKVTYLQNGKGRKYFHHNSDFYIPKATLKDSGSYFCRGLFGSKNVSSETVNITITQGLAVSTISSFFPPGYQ

For “rituximab IgG1 with Fc variant DF228 (antibody)”, in assay [1], the half-maximal effective concentration (EC50) came out at 154 nM. The ADCC EC50 (ADCC Reporter Bioassay, rituximab Fab, WIL2-S cells) in assay [2] came out at 2.66 ng/mL.

Consider “recombinant human FcRn heterodimer (α-FcRn extracellular domain with β2M) (from UniProt P55899 24-297; P61769 21-119) (complex)”, for which the Kd in assay [3] amounted to 24 nM; in [4] it was 19 nM; in [5] it was 825 nM; in [6] it was 21 nM; in assay [7] it was 21 nM.

Substance “rituximab IgG1 with Fc variant LS (antibody)” displayed an EC50 in [1] of 192 nM.

With “motavizumab IgG1 DF228 T256D;H286D (as printed; probably N286D);T307R;Q311V;A378V”, in [8], the ka was 1.39e+06 M⁻¹ s⁻¹ and the kd amounted to 0.0142 s⁻¹.

For the substance “motavizumab IgG1 DF183 T256D;Q311V;A378V”, in [8], the ka was determined as 1.93e+06 M⁻¹ s⁻¹ and the kd came to 0.0402 s⁻¹.

Regarding “rituximab IgG1 with wild type Fc (antibody)”, the EC50 in [1] is 538 nM.

“motavizumab IgG1 DF197 H285N;T307Q;N315D”: in [8], the ka came out at 1.59e+06 M⁻¹ s⁻¹ and the kd was 0.0328 s⁻¹.

Turning to “rituximab IgG1 with Fc variant DF215 (antibody)”, the EC50 in [1] stood at 142 nM. In assay [2], this substance displayed an ADCC EC50 (ADCC Reporter Bioassay, rituximab Fab, WIL2-S cells) of 2.73 ng/mL.

In turn, “rituximab IgG1 with Fc variant DF197 (antibody)” had a concentration giving a half-maximal response (EC50) in [1] of 97.4 nM. This substance showed an ADCC EC50 (ADCC Reporter Bioassay, rituximab Fab, WIL2-S cells) in assay [2] of 8.3 ng/mL.

As for “motavizumab IgG1 DF213 H285D;T307Q;A378V”, in assay [8], the ka worked out at 800000 M⁻¹ s⁻¹ and the kd was 0.0192 s⁻¹.

In turn, “rituximab IgG1 with Fc variant DF183 (antibody)” displayed an EC50 in assay [1] of 87.2 nM. Also, the ADCC EC50 (ADCC Reporter Bioassay, rituximab Fab, WIL2-S cells) in [2] stood at 3.92 ng/mL.

On to “motavizumab with wild type human IgG1 Fc (antibody)”, for which the dissociation constant Kd in assay [9] came to 13.7 nM.

Substance “rituximab IgG1 with Fc variant YTE (antibody)” registered an EC50 in assay [1] of 1010 nM. Besides, in [2], the ADCC EC50 (ADCC Reporter Bioassay, rituximab Fab, WIL2-S cells) came out at 15 ng/mL.

Consider “motavizumab IgG1 DF215 T307Q;Q311V;A378V”, for which, in [8], the ka turned out to be 1.37e+06 M⁻¹ s⁻¹ and the kd stood at 0.027 s⁻¹.

Regarding “rituximab IgG1 with Fc variant DF213 (antibody)”, the EC50 in assay [1] stood at 139 nM. The substance also came in with an ADCC EC50 (ADCC Reporter Bioassay, rituximab Fab, WIL2-S cells) in assay [2] of 4.01 ng/mL.

For orientation: EC50 means the midpoint of the concentration-response curve. As a reminder, the Kd is the free concentration of one partner at which half of the binding sites on the other are occupied at equilibrium, for simple one-to-one binding.
